# From PMC5551578 (The Journal of Experimental Medicine, 2017)
# B1: H5-Ab2 (antibody, V domains shown)
# VH: EVQLVQSGAEVKKPGSSVKVSCRSSGGPFRSNAISWVRQAPGQGLEWMGGIIAVFGTVEYAQKFQGRVTITADDSRSTVYMELRSLRSDDTAFYYCASAHGYHNYGSRGYFVSWGQGTLVTVSS
# VL: DIVMTQSPGTLSLSPGERATLSCRASQSVSSNYLAWYQQKLGQPPRLLIYGASSRATGIPDRFSGSGSGTDFTLTISRLEPEDYAVYYCQQYGSSPHTFGQGTKVEIK
# B2: H5-Ab4 (antibody, V domains shown)
# VH: EVQLVESGGGAVQPGRSLRLSCAVSGFTFSSYGMNWVRQAPGKGLEWVAVISYDGSNTYYADSVKGRFTISRDDSKNTLFLQMNSLRADDTAVYYCAKDFQLRLLRYFDWLSSPFDHWGQGTLVTVSS
# VL: DIQLTQSPGTLSLSPGERATLSCRASQSIRSNFLAWYQQTPGQGPRLLIYGASSRATGIPDRFSGSGSGTDFTLTISGLEPEDFAVYYCQQYASSPQTFGQGTKVEIK
# Target: T1, H1N1 HA (A/New Caledonia/20/1999), wild type (Influenza A virus A/New …, UniProt Q6WG00, strain)
# T1 construct: also called H1 wt; source: provided by D. Lingwood
# Test: ELISA
row,Binder,binding result
1,B1,binds
2,B2,binds
